# Data: US9529005B2, “Modulating bacterial MAM polypeptides in pathogenic disease” (priority 2011, dated 2016)
# Where two headings read alike, the source gives them in different places.
# Legend:
# HeLa cells [1] = type: cell-based; details: 500 μM heparin from intestinal mucosa
# [2] = Liposome association assay; type: binding; details: for decrease of binding to PA-containing liposomes (apparent affinity): individual GST-mce domains, 1-80 mol % PA, densitometry, relative to high binding mce domains
# Experimental: PBS-buffered liposomes were prepared from 1,2-Dioleoyl-sn-glycero-3-phosphocholine (PC) or mixtures of PC and 1,2-dioleoyl-sn-glycero-3-phosphate (PA) (both Avanti Polar Lipids Inc.) as described previously (Selyunin et al., 2011), but using PBS as buffer. 300 μg liposomes were incubated with 100 μg MBP-MAM protein in PBS for one hour at 22° C. Mixtures were centrifuged at 100 000×g, 4° C. for one hour and both pellet and supernatant fractions were separated by SDS-PAGE and proteins were detected by Coomassie staining.
# Binding of GST and GST-mce constructs to liposomes were carried out as described in the literature (Krachler et al., 2011). 300 μg liposomes containing PC alone or 1-80 mol % PA were incubated with 100 μg GST and GST-mce proteins in PBS for one hour at 22° C. Mixtures were centrifuged at 100,000×g, 4° C. for one hour and both pellet and supernatant fractions were separated by SDS-PAGE and proteins detected by Coomassie staining Band intensities were determined using the gel analysis software UN-SCAN-IT (Silk Scientific Inc.) and intensities of pellet samples (% bound) were expressed as fraction of total intensities (supernatant and pellet samples combined).
# [3] = Pull-down of liposomes (50 mol % PA, 50 mol % PC) on immobilized GST-mce domains; type: binding; details: 50 mol % PA and 50 mol % PC, molybdophosphoric acid assay
# Experimental: Liposomes in load, flowthrough and eluate fractions were quantified using the method of Worth an Wright (1977). Briefly, samples were extracted with a mixture of chloroform and methanol, centrifuged and molybdophosphoric acid (Sigma) was added to the organic phase. Samples were centrifuged and the aqueous phase removed. Metol and sodium bisulfate were added to reduce the organic phase and the aqueous phase was removed again following centrifugation. The amount of phospholipid was determined by measuring absorbance at 680 nm and expressed as fraction of the amount detected in loaded fractions.
# Although the inventors had previously shown that MAM1 is sufficient to bind to phosphatidic acid, it was unclear how the other mce domains contributed to phosphatidic acid binding in the absence of fibronectin. The inventors tested all seven individual mce domains (mce1-mce7) for phosphatidic acid binding using liposome association assays. Proteins were incubated with liposomes containing a mixture of PC and increasing amounts (1-80 mol %) of PA, followed by separation of liposome-bound and un-bound fractions by ultracentrifugation. All fractions were analyzed by SDS-PAGE (data not shown) followed by densitometry (FIG. 18A). […] When the inventors analyzed the mce domains of MAM7 for overall charge, they found only minor differences between individual domains. When they looked at charge distribution, however, the inventors observed that several basic residues that are otherwise well conserved between individual domains are mutated in mce 6. These include two residues which are lysines in mce 2, the strongest binding mce domain, but a serine and glutamine in mce 6, respectively, and a well conserved arginine which is replaced by a histidine in mce 6 (FIG. 18D). […]. (FIG. 18B and data not shown). […] GST-mce proteins were immobilized and incubated with liposomes. Bound liposomes were quantified using a molybdophosphoric acid assay. […]
# trypsinized cells = assay: Fluorescence attachment assay of labeled MAM7 on trypsinized cells; type: binding; details: cells treated with trypsin
# Experimental: HeLa cells were cultured in sterilized Corning costar 96 well plates (15 000 cells/well) for 16 hours prior to experiments. ALEXAFLUOR®-labeled (fluorescent dye) proteins were diluted into PBS to give final concentrations of 0.1-100 μM and incubated with cells washed with PBS for 1 hour at 37° C. Initial fluorescence and fluorescence output were measured on a plate reader (λexcitation 485 nm, λemission 520 nm) prior to and following three washes with PBS, respectively. Data was expressed as % bound fluorescence and corrected for values determined for MBP alone. Levels of bound protein were blotted as a function of protein concentration and data were fit to a single-site binding model using Sigma Plot. For fluorescence attachment assays on trypsinized cells, cells were detached from the culture dish by trypsinization, which was stopped by adding DMEM after 5 minutes. Cells were adjusted to 600,000/ml in PBS and incubated with 100 μM labeled MBP-MAM7 or MBP in PBS for 30 minutes at 37° C. Fluorescence of the cell suspension was measured before and after extensive washing with PBS as described above.
# Attachment assays with live bacteria or purified labeled protein were carried out as described (Krachler et al., 2011). […]
# V. parahaemolyticus POR1 = assay: BL21 expressing MAM constructs blocking POR1 attachment and POR1-mediated cytotoxicity; details: construct expressed on E. coli BL21, identical multiplicity of infection
# HeLa cells [4] = assay: Fluorescence attachment assay: saturation binding of labeled MBP-MAM proteins to HeLa cells
# Lipid overlay assay = type: binding; details: MBP-MAM proteins
# Experimental: Pre-spotted PIPstrips™ (Echelon Biosciences Inc.) were incubated in T-TBS containing 5% dry milk powder for one hour at 22° C. MBP-MAM proteins were diluted into blocking buffer to give a final concentration of 10 μM and incubated with the PIP strip for one hour at 22° C. Strips were washed with T-TBS three times for 10 minutes each and incubated with His antibody (QIAGEN) diluted 1:1000 into blocking buffer at 22° C. for one hour. Strips were washed three times with T-TBS and incubated with anti-mouse HRP-conjugated secondary antibody (GE Healthcare) diluted 1:5000 into blocking buffer for 1 hour at 22° C. After three more washes, bound proteins were detected using the ECL plus detection system (GE Healthcare).
Molecule,decrease of binding to PA-containing liposomes (apparent affinity) [2],binding of liposomes to immobilized GST-mce proteins [3],also measured
heparin,–,–,BL21-MAM7 remaining attached (HeLa cells [1]): ~40%
"mce 1: GST-tagged individual mce domain 1 of V. parahaemolyticus MAM7 (SEQ ID NO: 5) (protein, listed as Vibrio parahaemolyticus, GST tag) AGQRVQIYFSDAAGLVAGRTTIRYQGLEVGMVRDINLSEDLGSIYVDADIYPEATKLLNDKTRFWLVKPTASLTGVSGLDALVSGNYISIQPG",bound equally well,strong binding,–
"mce 7: GST-tagged individual mce domain 7 of V. parahaemolyticus MAM7 (SEQ ID NO: 11) (protein, listed as Vibrio parahaemolyticus, GST tag) EGVMFTLQSEQRGSVQVGTPVLYRQMEVGQVTDVRLGEFADRVVSTIKIKPEYAYLVRQNSVFWNVSGVDVSIGITGANIKAGTIDSLVRG",~20 fold,strong binding,–
"mce 3: GST-tagged individual mce domain 3 of V. parahaemolyticus MAM7 (SEQ ID NO: 7) (protein, listed as Vibrio parahaemolyticus, GST tag) RGIAIKIALPDDNKVSSEGAPIMYRGIEIGQVTDLSLSEGREVILASAAIQPAFSDMLTTGTRFVLEEAKVSLSGVENIANLVRGNFLTIVPG",bound equally well,strong binding,–
"mce 2: GST-tagged individual mce domain 2 of V. parahaemolyticus MAM7 (SEQ ID NO: 6) (protein, listed as Vibrio parahaemolyticus, GST tag) QGLNIKLKSRDLGGVSIGSQIVYKKIPIGAVYSYQLDEDAKSITIQANIQEQYRHIINDRSRFWNVSGIGASIGFEGVDVRLESMSALLGG",bound equally well,strong binding,–
"mce 5: GST-tagged individual mce domain 5 of V. parahaemolyticus MAM7 (SEQ ID NO: 9) (protein, listed as Vibrio parahaemolyticus, GST tag) GSKTLMLFASELPPISKGSPLLYRNLPVGNVSDFHLVDGGVLIKATIENRFAYLVTPQTVFWNRSGIEIDASLSGVSVKAHPLKSLIEG",~6 fold,weaker binding,–
"mce 4: GST-tagged individual mce domain 4 of V. parahaemolyticus MAM7 (SEQ ID NO: 8) (protein, listed as Vibrio parahaemolyticus, GST tag) SIAIRLISDNSFGLDSGANVLYKGIVVGSIINVGLVDEKKQTKHEVFMDVLIDHEYKHLIKSNNRFYVTGSASAELTESGLSVTVP",bound equally well,strong binding,–
"mce 6: GST-tagged individual mce domain 6 of V. parahaemolyticus MAM7 (SEQ ID NO: 10) (protein, listed as Vibrio parahaemolyticus, GST tag) FGRVISLETDGTQEVLKGMPIEYQGVKVGEVTLVVPNFRRNLVEVTARILPEYVENIAVEGTHFWLTEPEIGLGGVKNLGALVSKSISVEPG",more than 100 fold,weaker binding,–
"MAM7: recombinant MBP-tagged V. parahaemolyticus multivalent adhesion molecule with seven mce domains in tandem (SEQ ID NO:1) (protein, listed as Vibrio parahaemolyticus, MBP tag) MSDQNNSQTSYVPDVKRSKGISPLWLLPILTMVLAGWLVVKSIHDAGQRVQIYFSDAAGLVAGRTTIRYQGLEVGMVRDINLSEDLGSIYVDADIYPEATKLLNDKTRFWLVKPTASLTGVSGLDALVSGNYISIQPGDGQEFETTFHALDSAPTDLRVSQGLNIKLKSRDLGGVSIGSQIVYKKIPIGAVYSYQLDEDAKSITIQANIQEQYRHIINDRSRFWNVSGIGASIGFEGVDVRLESMSALLGGAIAVDSPDDGEPVEENTEFRLYKDLKTAGRGIAIKIALPDDNKVSSEGAPIMYRGIEIGQVTDLSLSEGREVILASAAIQPAFSDMLTTGTRFVLEEAKVSLSGVENIANLVRGNFLTIVPGDGERSRRFTAIRKNVFNQQQEKSIAIRLISDNSFGLDSGANVLYKGIVVGSIINVGLVDEKKQTKHEVFMDVLIDHEYKHLIKSNNRFYVTGSASAELTESGLSVTVPPAKQLLTGSISFVSEGSESIQKEYQLFQNESLAELAQYNKTGSKTLMLFASELPPISKGSPLLYRNLPVGNVSDFHLVDGGVLIKATIENRFAYLVTPQTVFWNRSGIEIDASLSGVSVKAHPLKSLIEGGIAFDSVPGVENKVGERWKLYADQQKARKFGRVISLETDGTQEVLKGMPIEYQGVKVGEVTLVVPNFRRNLVEVTARILPEYVENIAVEGTHFWLTEPEIGLGGVKNLGALVSKSISVEPGNGKAKFDFQLEKGFDRVEGVMFTLQSEQRGSVQVGTPVLYRQMEVGQVTDVRLGEFADRVVSTIKIKPEYAYLVRQNSVFWNVSGVDVSIGITGANIKAGTIDSLVRGGIAFSTPEQSQIPPAAKRGHSFYLYPRADESWVQWRTPIPKP",–,–,"reduction of the number of MAM7 molecules on cells (trypsinized cells): over 100 fold; PA content of liposomes at which binding was seen ([2]; MBP-MAM proteins, PC/PA liposomes): 1 mol %; effect on attachment of POR1 and pathogen-mediated cytotoxicity (V. parahaemolyticus POR1): significantly decreased; Kd (HeLa cells [4]; intact host cells, read-out: apparent KD for intact cells): 200 nM; Kd (HeLa cells [4]; saturation binding, ALEXAFLUOR-labeled MBP-MAM proteins, cultivated HeLa cells, read-out: Equilibrium dissociation constants (KD values)): 200 ± 100 nM; binding to PA in lipid overlay assay (Lipid overlay assay): bound to PA"
